Laboratory results: patent publication US20230338526A1 (BIO THERA SOLUTIONS, published 2023)

How the values were obtained:
CD20 [1] = target: T1, CD20 (human, UniProt P11836 1-297); test: cell-based or functional assay
T1 sequence (looked up): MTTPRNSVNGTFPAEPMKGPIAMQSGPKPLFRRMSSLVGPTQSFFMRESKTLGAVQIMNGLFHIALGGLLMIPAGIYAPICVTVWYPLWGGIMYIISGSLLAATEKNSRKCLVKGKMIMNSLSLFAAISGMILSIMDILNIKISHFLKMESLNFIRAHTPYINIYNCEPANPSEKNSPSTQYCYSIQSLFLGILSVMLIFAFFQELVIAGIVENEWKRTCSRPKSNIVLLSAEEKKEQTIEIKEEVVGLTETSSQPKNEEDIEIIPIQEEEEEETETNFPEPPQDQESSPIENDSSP

CD20 [2] = target: T1, CD20; test: cell-based or functional assay; remark: listed apart in the source
CD20 [3] = target: T1, CD20; test: binding to CD20+ cells; method and cell line not stated

B1: Rituximab (antibody, V domains shown)
VH: QVQLQQPGAELVKPGASVKMSCKASGYTFTSYNMHWVKQTPGRGLEWIGAIYPGNGDTSYNQKFKGKATLTADKSSSTAYMQLSSLTSEDSAVYYCARSTYYGGDWYFNVWGAGTTVTVSA
VL: QIVLSQSPAILSASPGEKVTMTCRASSSVSYIHWFQQKPGSSPKPWIYATSNLASGVPVRFSGSGSGTSYSLTISRVEAEDAATYYCQQWTSNPPTFGGGTKLEIK
ADCC, PBMC method (CD20 [1]): 0.0496 nM
ADCC, Reporter gene assay method (CD20 [1]): 0.019 nM
Percentage of whole blood B-cell depletion in vitro, 10 ng/ml (CD20 [2]): 17.8%
Percentage of whole blood B-cell depletion in vitro, 50 ng/ml (CD20 [2]): 36%
Binding to CD 20^+ cells (CD20 [3]): 10.2 nM
